Where a SMILES comes first, the peptide text is derived from it.
Columns and labels:
Assay in all cases: Kinase Profiling Assay
Assay type in all cases: biochemical
[1] = target: MAPKAP-K2(h) (Homo sapiens, UniProt P49137); settings: for MAPKAP-K2(h) % activity: 100 μM peptide
How it was run: (§1)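 Each kinase in a 266-member human panel is assayed, in duplicate, for activity in the presence of MK2 inhibitory peptides to gauge specificity.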

[2] = target: EGFR(T790M,L858R)(h) (Homo sapiens, UniProt P00533, L858R/T790M); settings: 100 μM peptide
How it was run: as §1

[3] = target: T1, Ret(h) (Homo sapiens, UniProt P07949); settings: 100 μM peptide
T1 construct: purchased Millipore (IC50 Profiler Express service)
How it was run: as §1

[4] = target: Fyn(h) (Homo sapiens, UniProt P06241); settings: 100 μM peptide
Sequence of Fyn(h) (P06241 whole entry): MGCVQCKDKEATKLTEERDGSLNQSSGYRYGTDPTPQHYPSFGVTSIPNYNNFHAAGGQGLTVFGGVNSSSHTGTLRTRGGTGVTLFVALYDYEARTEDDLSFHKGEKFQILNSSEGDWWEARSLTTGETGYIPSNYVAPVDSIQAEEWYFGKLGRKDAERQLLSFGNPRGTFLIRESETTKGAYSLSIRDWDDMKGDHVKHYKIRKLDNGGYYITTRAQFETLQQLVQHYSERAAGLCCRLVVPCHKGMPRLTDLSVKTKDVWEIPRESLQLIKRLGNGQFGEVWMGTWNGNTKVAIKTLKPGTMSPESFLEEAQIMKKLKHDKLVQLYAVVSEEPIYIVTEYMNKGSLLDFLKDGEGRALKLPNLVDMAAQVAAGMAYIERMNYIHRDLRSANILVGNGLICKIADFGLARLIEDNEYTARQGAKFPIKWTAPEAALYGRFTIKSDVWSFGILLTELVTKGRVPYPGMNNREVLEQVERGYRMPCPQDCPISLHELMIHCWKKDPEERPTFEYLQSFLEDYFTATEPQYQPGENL
How it was run: as §1

[5] = target: T2, BrSK1(h) (Homo sapiens, UniProt Q8TDC3); settings: 100 μM peptide
T2 sequence (Q8TDC3 1-778): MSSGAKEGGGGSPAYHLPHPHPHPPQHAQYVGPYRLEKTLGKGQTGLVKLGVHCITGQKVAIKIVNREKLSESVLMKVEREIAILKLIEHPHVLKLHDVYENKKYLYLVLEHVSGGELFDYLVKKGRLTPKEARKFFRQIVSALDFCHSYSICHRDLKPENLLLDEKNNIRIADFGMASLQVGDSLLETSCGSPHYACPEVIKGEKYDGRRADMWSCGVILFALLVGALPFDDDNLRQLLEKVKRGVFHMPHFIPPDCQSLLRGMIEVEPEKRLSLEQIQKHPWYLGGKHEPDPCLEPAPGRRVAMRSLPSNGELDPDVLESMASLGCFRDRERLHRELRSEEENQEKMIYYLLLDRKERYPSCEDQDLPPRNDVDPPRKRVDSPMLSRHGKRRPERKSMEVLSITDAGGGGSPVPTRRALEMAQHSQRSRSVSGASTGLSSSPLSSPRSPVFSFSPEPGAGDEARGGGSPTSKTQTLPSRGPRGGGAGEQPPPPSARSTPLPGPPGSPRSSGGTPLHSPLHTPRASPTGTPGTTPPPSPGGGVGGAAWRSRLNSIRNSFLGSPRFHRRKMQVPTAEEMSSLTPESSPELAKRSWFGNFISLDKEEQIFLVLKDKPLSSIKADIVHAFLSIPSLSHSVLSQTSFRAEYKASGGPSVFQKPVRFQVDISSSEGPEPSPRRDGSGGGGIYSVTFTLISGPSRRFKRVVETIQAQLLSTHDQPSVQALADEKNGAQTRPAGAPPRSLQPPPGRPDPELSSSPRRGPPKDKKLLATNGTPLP
How it was run: as §1

[6] = target: Met(Y1248D)(h) (Homo sapiens, UniProt P08581, Y1230D); settings: 100 μM peptide
How it was run: as §1

[7] = target: T3, PKG1β(h) (Homo sapiens, UniProt Q13976); settings: 100 μM peptide
T3 construct: purchased Millipore (IC50 Profiler Express service)
T3 sequence (Q13976 1-686 isoform Q13976-2): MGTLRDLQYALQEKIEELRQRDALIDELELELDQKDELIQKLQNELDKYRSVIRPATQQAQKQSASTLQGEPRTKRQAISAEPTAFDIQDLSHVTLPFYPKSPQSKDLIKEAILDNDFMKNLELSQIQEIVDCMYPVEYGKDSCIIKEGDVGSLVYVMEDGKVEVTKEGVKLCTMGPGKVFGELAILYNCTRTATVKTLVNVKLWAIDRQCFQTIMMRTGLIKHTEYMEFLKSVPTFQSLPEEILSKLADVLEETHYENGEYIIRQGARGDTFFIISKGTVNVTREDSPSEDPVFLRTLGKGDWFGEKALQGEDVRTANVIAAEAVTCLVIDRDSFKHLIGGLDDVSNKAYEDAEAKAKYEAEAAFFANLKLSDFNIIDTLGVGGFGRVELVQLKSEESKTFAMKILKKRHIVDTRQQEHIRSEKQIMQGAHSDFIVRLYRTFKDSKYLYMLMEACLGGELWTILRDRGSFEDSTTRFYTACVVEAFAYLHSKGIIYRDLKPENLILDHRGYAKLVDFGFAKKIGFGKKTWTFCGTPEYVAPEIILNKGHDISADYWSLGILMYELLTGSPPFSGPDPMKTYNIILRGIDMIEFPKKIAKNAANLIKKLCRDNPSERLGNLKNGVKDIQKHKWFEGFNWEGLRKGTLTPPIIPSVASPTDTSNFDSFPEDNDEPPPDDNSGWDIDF
How it was run: as §1

[8] = target: EphA7(h) (Homo sapiens, UniProt Q15375); settings: 100 μM peptide
Sequence of EphA7(h) (Q15375 28-998): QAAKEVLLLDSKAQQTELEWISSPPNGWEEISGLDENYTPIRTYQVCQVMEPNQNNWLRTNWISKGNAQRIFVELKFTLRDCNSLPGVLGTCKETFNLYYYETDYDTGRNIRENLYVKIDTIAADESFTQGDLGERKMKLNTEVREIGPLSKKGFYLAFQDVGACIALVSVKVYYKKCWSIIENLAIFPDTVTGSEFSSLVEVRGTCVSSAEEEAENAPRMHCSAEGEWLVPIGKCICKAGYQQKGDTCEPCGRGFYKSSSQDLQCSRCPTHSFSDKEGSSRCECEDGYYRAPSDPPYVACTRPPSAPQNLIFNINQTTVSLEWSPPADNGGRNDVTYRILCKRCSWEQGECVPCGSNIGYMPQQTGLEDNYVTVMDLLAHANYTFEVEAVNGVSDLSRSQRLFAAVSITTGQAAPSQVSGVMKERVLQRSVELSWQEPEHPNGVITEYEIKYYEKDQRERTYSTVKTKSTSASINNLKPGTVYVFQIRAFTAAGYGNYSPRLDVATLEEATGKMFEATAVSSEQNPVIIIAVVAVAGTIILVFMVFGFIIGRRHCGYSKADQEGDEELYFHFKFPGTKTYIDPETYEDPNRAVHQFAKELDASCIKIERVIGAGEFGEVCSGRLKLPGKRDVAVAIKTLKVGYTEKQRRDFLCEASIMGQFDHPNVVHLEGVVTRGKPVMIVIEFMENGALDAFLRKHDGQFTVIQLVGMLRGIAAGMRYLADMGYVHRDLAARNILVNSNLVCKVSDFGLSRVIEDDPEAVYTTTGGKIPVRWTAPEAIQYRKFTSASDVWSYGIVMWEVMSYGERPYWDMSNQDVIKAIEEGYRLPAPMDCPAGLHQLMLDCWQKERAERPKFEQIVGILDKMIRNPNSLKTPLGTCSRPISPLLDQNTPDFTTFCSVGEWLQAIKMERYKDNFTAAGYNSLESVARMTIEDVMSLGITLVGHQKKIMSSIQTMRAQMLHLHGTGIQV
How it was run: as §1

[9] = target: T4, IR(h) (Homo sapiens, UniProt P06213); settings: 100 μM peptide
T4 construct: purchased Millipore
How it was run: as §1

[10] = target: PKBγ(h) (Homo sapiens, UniProt Q9Y243); settings: 100 μM peptide
Sequence of PKBγ(h) (Q9Y243 whole entry): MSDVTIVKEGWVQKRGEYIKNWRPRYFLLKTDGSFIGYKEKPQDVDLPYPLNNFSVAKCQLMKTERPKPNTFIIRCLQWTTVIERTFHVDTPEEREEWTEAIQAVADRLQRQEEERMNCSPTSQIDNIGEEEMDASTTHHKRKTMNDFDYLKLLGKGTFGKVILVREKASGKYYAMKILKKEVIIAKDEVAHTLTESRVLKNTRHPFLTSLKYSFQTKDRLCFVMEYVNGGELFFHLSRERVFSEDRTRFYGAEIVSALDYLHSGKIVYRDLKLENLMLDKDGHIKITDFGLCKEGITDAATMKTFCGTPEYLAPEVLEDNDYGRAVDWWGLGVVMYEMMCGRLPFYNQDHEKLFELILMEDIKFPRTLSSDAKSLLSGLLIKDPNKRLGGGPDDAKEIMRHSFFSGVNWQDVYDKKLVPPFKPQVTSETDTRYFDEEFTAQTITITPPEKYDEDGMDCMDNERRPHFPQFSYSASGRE
How it was run: as §1

Sequence of MAPKAP-K2(h) (P49137 whole entry): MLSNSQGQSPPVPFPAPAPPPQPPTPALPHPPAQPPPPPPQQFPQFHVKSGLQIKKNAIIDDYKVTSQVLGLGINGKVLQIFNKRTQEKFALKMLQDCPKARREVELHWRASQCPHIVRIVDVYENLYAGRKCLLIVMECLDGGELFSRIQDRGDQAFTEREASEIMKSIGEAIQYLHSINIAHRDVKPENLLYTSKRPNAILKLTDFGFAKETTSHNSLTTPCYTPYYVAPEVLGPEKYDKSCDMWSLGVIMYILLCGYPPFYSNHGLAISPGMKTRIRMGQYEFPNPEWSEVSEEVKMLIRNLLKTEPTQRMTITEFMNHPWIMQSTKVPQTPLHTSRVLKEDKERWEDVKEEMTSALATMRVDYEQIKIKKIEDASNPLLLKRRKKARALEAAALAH

Molecule | inhibition at 100 µM ([1]; read-out: inhibition of kinase activity of MK2) [%] | EGFR(T790M,L858R)(h) % activity [2] [%] | Ret(h) % activity [3] [%] | Fyn(h) % activity [4] [%] | BrSK1(h) % activity [5] [%] | Met(Y1248D)(h) % activity [6] [%] | MAPKAP-K2(h) % activity [1] [%] | PKG1β(h) % activity [7] [%] | EphA7(h) % activity [8] [%] | IR(h) % activity [9] [%] | PKBγ(h) % activity [10] [%]
CC(C)C[C@H](NC(=O)[C@H](C)NC(=O)[C@H](CCCCN)NC(=O)[C@H](C)NC(=O)[C@H](CCCNC(=N)N)NC(=O)[C@H](C)NC(=O)[C@H](CCC(N)=O)NC(=O)[C@H](CCCNC(=N)N)NC(=O)[C@H](C)NC(=O)[C@H](C)NC(=O)[C@H](C)NC(=O)[C@H](CCCNC(=N)N)NC(=O)[C@H](C)NC(=O)[C@@H](N)Cc1ccc(O)cc1)C(=O)N[C@@H](C)C(=O)N[C@@H](CCCNC(=N)N)C(=O)N[C@@H](CCC(N)=O)C(=O)N[C@@H](CC(C)C)C(=O)NCC(=O)N[C@H](C(=O)N[C@@H](C)C(=O)N[C@@H](C)C(=O)O)C(C)C [MMI-0100] (H-YARAAARQARAKALARQLGVAA-OH; N-terminus and C-terminus assumed) | > 65 | – | – | – | – | – | – | – | – | – | –
YARAAARQARAKALNRQLGVA (Mammalian) [MMI-0200] | – | 108 | 96 | 75 | 93 | 118 | 35 | 57 | 220 | 90 | –
HRRIKAWLKKIKALARQLGVAA (Mammalian) [MMI-0500] | – | 53 | 174 | 83 | 72 | 218 | 9 | 24 | 189 | 95 | 20
KAFAKLAARLYRKALARQLGVAA [MMI-0400] | – | 78 | 145 | 54 | 76 | 31 | 5 | 53 | 222 | 85 | 41
FAKLAARLYRKALARQLGVAA [MMI-0300] | – | 85 | 140 | 74 | 67 | – | 5 | 50 | 159 | 96 | 20

Reference: patent publication US10562947B2, “Compositions and methods for preventing or treating diseases, conditions or processes characterized by aberrant fibroblast proliferation and extracellular matrix deposition” (MOERAE MATRIX, INC., priority 2011, dated 2020)
